Data from the supplement of paper PMC12042874.
± gives the uncertainty stated by the source.

Test: amyloid nucleation score (Sup35N fusion, yeast selection) (log enrichment); library NNK3; higher = more nucleation; inactive = no reads after selection
Outline: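 Output and input plasmid inserts were sequenced by Illumina after psi-negative yeast carrying Sup35N fused to peptides of 20 random codons had been induced 24 hours with 100 μM copper sulfate and grown 7 days at 30°C on medium lacking adenine and uracil. The nucleation score is the DiMSum log enrichment of output over input reads, centred on the mode score of non-aggregating sequences. Sequences with under 100 input reads were excluded.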

Row | Substance | amyloid nucleation score
1 | NSASSFCPRRLCYGRRQEDL | inactive
2 | VDINRFMEPLSCVRCCDDSC | inactive
3 | VNSLVSRQINFIEVRRSMRW | 0.849 ± 0.23
4 | FCGIYCKAINSFAVDLMPWI | inactive
5 | GICKGNMYRFSMSYDSNLIM | inactive
6 | ISNSLSIEGLAY | inactive
7 | SLISNCPIVWNRIWISYHFH | 0.738 ± 0.3
8 | ENWDSILCKWRGAGMRGSAW | inactive
9 | LLIVFLIFRMLRLAGASI | inactive
10 | TAEDYFMKVY | inactive
11 | NLTGCMDLC | 0.853 ± 0.19
12 | CSQNT | inactive
13 | AYADGYNLFWDYK | inactive
14 | YDPFYGNDQVPIQIVFLCFP | inactive
15 | VFEDNDLCELINDVILEHHR | inactive
16 | VRMMFSWPK | 0.902 ± 0.24
17 | TNVAHSKSSHHAYFIDWIGQ | inactive
18 | MMLLGVRVED | inactive
19 | EHSNNFTHNYVFWIGIGLAC | inactive
20 | LNDGWVLIYYSGALSDREI | inactive
21 | RYRGMGQNMT | inactive

Row | Substance | amyloid nucleation score
22 | KSWVRGH | inactive
23 | FLSIRFV | inactive
24 | MIGFYLILVGSHIRMYTGS | inactive
25 | LSGVSWKLCVYCFTVRGAAL | 0.863 ± 0.22
26 | SDEGRAIPSATPFWEYCLMW | inactive
27 | YHYQDNMS | inactive
28 | DLNIKYMVWACTSVRDCRYY | 1.01 ± 0.085
29 | VTWIYSSNGVWINGDKSFML | 1.22 ± 0.079
30 | PSSRT | inactive
31 | HKSIYF | inactive
32 | SKRFAIAEQVCNSF | inactive
33 | PVGVMTVSDLLFDYFAFRSF | inactive
34 | GYRSTCVRRFCECRCRDITA | inactive
35 | CWSRMNSVDAIYK | inactive
36 | VIRNYTIEIMWVWDQKADVQ | inactive
37 | GSSVELVIQSS | 0.415 ± 0.28
38 | CRTTRLTLNGVIVGNAGFSI | inactive
39 | IFIMKARSKFPRVPFFQEFP | 1.23 ± 0.13
40 | HYRVLPPAVVRRRVMLL | inactive
41 | NHLSPMRTKLYLKETNPSSA | inactive
42 | IYYNHVVI | inactive

Row | Substance | amyloid nucleation score
43 | VKDGTLCWCRAPFRCCRMPI | -0.426 ± 1.1
44 | ECRHSEWTEYFPSMRFMQAY | inactive
45 | GTASRG | inactive
46 | YHIRR | inactive
47 | NDHLSCVRMVLHSMGCHKWS | -0.181 ± 0.88
48 | HGSSCTRWAWALMNILDCVM | inactive
49 | FVSSVASFVSHKLVMKLSAM | inactive
50 | QTISVYYFHVLWSEGCRMYA | inactive
51 | ALLTFILVLIVEVVNWRKVC | 0.961 ± 0.23
52 | LMFYGFYLVLRGS | inactive
53 | WIYYNAVFHACCVYELSNNA | 2.85 ± 0.067
54 | KPCVTFSHSAIRISVTWSTN | -0.079 ± 0.38
55 | SVTSHDPMACHLLVCSV | inactive
56 | GHVIMGLSGYGSLASLFKTG | inactive
57 | YSCYSSLL | inactive
58 | ICDLSREYSNHGFVLMDEIR | inactive
59 | QVYLVIV | inactive
60 | LLRVNSEAGESCQVSFTFNM | 1.73 ± 0.093
61 | RDKKNNRVYFGGYSLGTWSC | inactive
62 | RALTLADASGMRGINSGTMK | inactive
63 | SSPRYVCWNF | inactive

Row | Substance | amyloid nucleation score
64 | WGFRWNKCLNLAQPWLMALS | inactive
65 | CSISSKIFLLLMNWLCWSCG | inactive
66 | IAHPSHGS | 0.432 ± 0.22
67 | VLLLTMEFGASDVFCWVVKY | inactive
68 | MSSACGWEEVIGCLEVMRIG | inactive
69 | VCRFPRFFWTCYSDVLHCFS | inactive
70 | TTDGFRVRSTLYNYICVWRY | inactive
71 | RCFSRRSCCGSVVWTVRVRH | inactive
72 | NVLQYYNRLGTSRCIRAAFL | inactive
73 | YCLVV | inactive
74 | FCLVFSELILFCVCSWVNST | inactive
75 | HCNEYSGNVVSRG | inactive
76 | LNIMVE | inactive
77 | AMKSAW | inactive
78 | ALWLPITVDWMLESGCGGCY | inactive
79 | VFIPVASVIKWGSFKP | 0.65 ± 0.21
80 | KEVMFR | 1.64 ± 0.12
81 | SRLNFVCRGGSSAVFRRKAH | inactive
